Source: patent publication US20260193334A1 (ZOETIS SERVICES, published 2026)

Assays:
[1] = molecular target: T1, canine FcRn complex (FcRn-α subunit and β-microglobulin) (canine, UniProt A0A8I3PFR8 25-347, biotin labeled through BirA enzymatic reaction in Example 5); assay: SPR (Biacore), FcRn amine-coupled on CM5, IgG as analyte, pH 6, 15 C
[2] = molecular target: IL-31 (target protein of mAb1); assay: cell-based or functional assay
[3] = molecular target: T1, canine FcRn complex (FcRn-α subunit and …); assay: SPR (Biacore), FcRn amine-coupled on CM5, IgG as analyte, pH 7.2, 15 C
[4] = molecular target: canine FcRn complex (FcRn-α subunit and β-microglobulin) (canine); assay: SPR (Biacore), FcRn amine-coupled on CM5, IgG as analyte, pH 6, 15 C
[5] = molecular target: NGF (target protein of mAb2); assay: cell-based or functional assay
[6] = molecular target: canine FcRn complex (FcRn-α subunit and β-microglobulin) (canine); assay: SPR (Biacore), FcRn amine-coupled on CM5, IgG as analyte, pH 7.2, 15 C
[7] = molecular target: TGFβ (target protein of mAb3); assay: cell-based or functional assay

T1 sequence (A0A8I3PFR8 entry or part of it, one chain of several): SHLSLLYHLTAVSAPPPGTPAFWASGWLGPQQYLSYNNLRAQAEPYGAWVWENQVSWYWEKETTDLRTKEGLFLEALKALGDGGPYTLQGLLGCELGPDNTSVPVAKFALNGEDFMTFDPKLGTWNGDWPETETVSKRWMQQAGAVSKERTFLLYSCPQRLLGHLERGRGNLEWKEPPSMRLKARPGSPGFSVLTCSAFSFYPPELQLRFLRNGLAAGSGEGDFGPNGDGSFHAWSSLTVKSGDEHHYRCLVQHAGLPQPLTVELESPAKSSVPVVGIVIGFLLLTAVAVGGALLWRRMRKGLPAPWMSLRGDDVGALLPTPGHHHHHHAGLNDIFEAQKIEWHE

Binder	Kd [1]	IC50 (cell based potency assay) [2]	Kd [3]	Kd [4]	IC50 (cell based potency assay) [5]	other results
caninized anti-NGF antibody mAb2 of Tables 1-3, canine IgGB (65), wild-type (antibody, part only; not given: Anti-NGF heavy and light variable domains, part only) heavy, part: ASTTAPSVFPLAPSCGSTSGSTVALACLVSGYFPEPVTVSWNSGSLTSGVHTFPSVLQSSGLYSLSSMVTVPSSRWPSETFTCNVAHPASKTKVDKPVPKRENGRVPRPPDCPKCPAPEMLGGPSVFIFPPKPKDTLLIARTPEVTCVVVDLDPEDPEVQISWFVDGKQMQTAKTQPREEQFNGTYRVVSVLPIGHQDWLKGKQFTCKVNNKALPSPIERTISKARGQAHQPSVYVLPPSREELSKNTVSLTCLIKDFFPPDIDVEWQSNGQQEPESKYRTTPPQLDEDGSYFLYSKLSVDKSRWQRGDTFICAVMHEALHNHYTQESLSHSPGK				57.2 nM	23.7 nM	
caninized anti-NGF antibody mAb2 of Tables 1-3, canine IgGB (65), N434H (antibody, part only; not given: Anti-NGF heavy and light variable domains, part only) heavy, part: ASTTAPSVFPLAPSCGSTSGSTVALACLVSGYFPEPVTVSWNSGSLTSGVHTFPSVLQSSGLYSLSSMVTVPSSRWPSETFTCNVAHPASKTKVDKPVPKRENGRVPRPPDCPKCPAPEMLGGPSVFIFPPKPKDTLLIARTPEVTCVVVDLDPEDPEVQISWFVDGKQMQTAKTQPREEQFNGTYRVVSVLPIGHQDWLKGKQFTCKVNNKALPSPIERTISKARGQAHQPSVYVLPPSREELSKNTVSLTCLIKDFFPPDIDVEWQSNGQQEPESKYRTTPPQLDEDGSYFLYSKLSVDKSRWQRGDTFICAVMHEALHHHYTQESLSHSPGK				7.3 nM	20.9 nM	Kd [6]: 1300 nM
anti-TGFβ antibody ZTS-4155, canine IgGB (65), wild-type (antibody, built here as variable domain plus IgGB constant domain; also called mAb3 WT) heavy: EVQLVQSGAEVKKPGASVKVSCKTSGYTFITYWMNWVRQAPGAGLDWMGQIFPASGSTNYNEMFEGRVTLTADTSTSTAYMELSSLRAGDIAVYYCARGDGNYALDAMDYWGQGTLVTASTTAPSVFPLAPSCGSTSGSTVALACLVSGYFPEPVTVSWNSGSLTSGVHTFPSVLQSSGLYSLSSMVTVPSSRWPSETFTCNVAHPASKTKVDKPVPKRENGRVPRPPDCPKCPAPEMLGGPSVFIFPPKPKDTLLIARTPEVTCVVVDLDPEDPEVQISWFVDGKQMQTAKTQPREEQFNGTYRVVSVLPIGHQDWLKGKQFTCKVNNKALPSPIERTISKARGQAHQPSVYVLPPSREELSKNTVSLTCLIKDFFPPDIDVEWQSNGQQEPESKYRTTPPQLDEDGSYFLYSKLSVDKSRWQRGDTFICAVMHEALHNHYTQESLSHSPGK VL: DIVMTQTPPSLSVSPRETASISCRASESVDSYGNSFMHWYLQKPGQSPQLLIYLASNLESGVSDRFSGSGSGTDFTLRISRVEANDTGVYYCQQNNEDPLTFGQ	523 nM					IC50 (cell based potency assay) [7]: 0.13 µg/mL

The next lines start with results.

Kd [1]	IC50 (cell based potency assay) [2]	Kd [3]	Kd [4]	IC50 (cell based potency assay) [5]	Binder	other results
15 to 24.4 nM	1.1 nM				caninized anti-IL31 antibody 34D03, canine IgGB (65), wild-type (antibody, also called mAb1 WT; ID No. 8) heavy: EVQLVESGGDLVKPGGSLRLSCVASGFTFSNYGMSWVRQAPGKGLQWVATISYGGSYTYYPDNIKGRFTISRDNAKNTLYLQMNSLRAEDTAMYYCVRGYGYDTMDYWGQGTLVTVSSASTTAPSVFPLAPSCGSTSGSTVALACLVSGYFPEPVTVSWNSGSLTSGVHTFPSVLQSSGLYSLSSMVTVPSSRWPSETFTCNVAHPASKTKVDKPVPKRENGRVPRPPDCPKCPAPEMLGGPSVFIFPPKPKDTLLIARTPEVTCVVVDLDPEDPEVQISWFVDGKQMQTAKTQPREEQFNGTYRVVSVLPIGHQDWLKGKQFTCKVNNKALPSPIERTISKARGQAHQPSVYVLPPSREELSKNTVSLTCLIKDFFPPDIDVEWQSNGQQEPESKYRTTPPQLDEDGSYFLYSKLSVDKSRWQRGDTFICAVMHEALHNHYTQESLSHSPGK VL: EIVMTQSPASLSLSQEEKVTITCKASQSVSFAGTGLMHWYQQKPGQAPKLLIYRASNLEAGVPSRFSGSGSGTDFSFTISSLEPEDVAVYYCQQSREYPWTFGQGTKLEIK	
0.7 to 1.3 nM	0.99 nM	5000 nM			caninized anti-IL31 antibody 34D03, canine IgGB (65), N434H (antibody, also called mAb1 N434H; ID No. 31) heavy: EVQLVESGGDLVKPGGSLRLSCVASGFTFSNYGMSWVRQAPGKGLQWVATISYGGSYTYYPDNIKGRFTISRDNAKNTLYLQMNSLRAEDTAMYYCVRGYGYDTMDYWGQGTLVTVSSASTTAPSVFPLAPSCGSTSGSTVALACLVSGYFPEPVTVSWNSGSLTSGVHTFPSVLQSSGLYSLSSMVTVPSSRWPSETFTCNVAHPASKTKVDKPVPKRENGRVPRPPDCPKCPAPEMLGGPSVFIFPPKPKDTLLIARTPEVTCVVVDLDPEDPEVQISWFVDGKQMQTAKTQPREEQFNGTYRVVSVLPIGHQDWLKGKQFTCKVNNKALPSPIERTISKARGQAHQPSVYVLPPSREELSKNTVSLTCLIKDFFPPDIDVEWQSNGQQEPESKYRTTPPQLDEDGSYFLYSKLSVDKSRWQRGDTFICAVMHEALHHHYTQESLSHSPGK VL: EIVMTQSPASLSLSQEEKVTITCKASQSVSFAGTGLMHWYQQKPGQAPKLLIYRASNLEAGVPSRFSGSGSGTDFSFTISSLEPEDVAVYYCQQSREYPWTFGQGTKLEIK	
1.56 nM		38.6 nM			anti-TGFβ antibody ZTS-4155, canine IgGB (65), N434Y (antibody) chain 1: EVQLVQSGAEVKKPGASVKVSCKTSGYTFITYWMNWVRQAPGAGLDWMGQIFPASGSTNYNEMFEGRVTLTADTSTSTAYMELSSLRAGDIAVYYCARGDGNYALDAMDYWGQGTLVTVSSASTTAPSVFPLAPSCGSTSGSTVALACLVSGYFPEPVTVSWNSGSLTSGVHTFPSVLQSSGLYSLSSMVTVPSSRWPSETFTCNVAHPASKTKVDKPVPKRENGRVPRPPDCPKCPAPEMLGGPSVFIFPPKPKDTLLIARTPEVTCVVVDLDPEDPEVQISWFVDGKQMQTAKTQPREEQFNGTYRVVSVLPIGHQDWLKGKQFTCKVNNKALPSPIERTISKARGQAHQPSVYVLPPSREELSKNTVSLTCLIKDFFPPDIDVEWQSNGQQEPESKYRTTPPQLDEDGSYFLYSKLSVDKSRWQRGDTFICAVMHEALHYHYTQESLSHSPGK chain 2: DIVMTQTPPSLSVSPRETASISCRASESVDSYGNSFMHWYLQKPGQSPQLLIYLASNLESGVSDRFSGSGSGTDFTLRISRVEANDTGVYYCQQNNEDPLTFGQGTKLEIKRNDAQPAVYLFQPSPDQLHTGSASVVCLLNSFYPKDINVKWKVDGVIQDTGIQESVTEQDKDSTYSLSSTLTMSSTEYLSHELYSCEITHKSLPSTLIKSFQRSEC	
